Measured values as given in patent publication US20210115137A1 (NATIONAL UNIVERSITY CORPORATION HOKKAIDO UNIVERSITY, published 2021).

Target: T1, extracellular domain of mouse PIR-B (Domains 1 to 6), biotinylated (mouse, UniProt P97484 25-642, biotinylated with BirA (site not stated))
T1 construct: The full-length protein is cited as NCBI NM_011095; also called Paired-Immunoglobulin-like Receptor B; PIR-B (extracellular domain)
T1 sequence: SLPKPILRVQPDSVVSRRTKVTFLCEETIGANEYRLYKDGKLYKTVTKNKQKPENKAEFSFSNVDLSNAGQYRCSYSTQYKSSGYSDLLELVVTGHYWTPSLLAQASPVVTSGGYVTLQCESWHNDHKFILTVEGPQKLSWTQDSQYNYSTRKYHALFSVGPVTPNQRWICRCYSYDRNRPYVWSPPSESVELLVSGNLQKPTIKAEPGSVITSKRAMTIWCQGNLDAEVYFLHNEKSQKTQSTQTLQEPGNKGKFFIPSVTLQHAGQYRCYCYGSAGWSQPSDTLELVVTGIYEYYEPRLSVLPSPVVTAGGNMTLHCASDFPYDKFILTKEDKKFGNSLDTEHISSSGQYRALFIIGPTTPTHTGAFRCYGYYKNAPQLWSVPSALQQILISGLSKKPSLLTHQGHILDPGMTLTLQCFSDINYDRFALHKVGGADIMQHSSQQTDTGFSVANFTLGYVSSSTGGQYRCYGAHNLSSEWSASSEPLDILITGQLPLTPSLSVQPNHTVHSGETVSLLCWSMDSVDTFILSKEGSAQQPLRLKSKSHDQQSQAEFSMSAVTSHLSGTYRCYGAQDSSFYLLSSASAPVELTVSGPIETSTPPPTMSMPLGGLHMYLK
Assay: SPR (BIAcore 3000), biotinylated PIR-B extracellular domain on streptavidin chip, HLA-G2 0.10-1.56 µM as analyte, 1:1 binding model
Procedure: Using BIAcore® 3000 (GE healthcare BIAcore), the affinity between HLA-G2 and the extracellular domain of PIR-B prepared as described above was determined in a surface plasmon resonance experiment. Streptavidin was first covalently fixed on a research grade sensor chip, and then the biotinylated extracellular domain of PIR-B or BSA as a negative control was fixed via the streptavidin. Then, a solution of HLA-G [α1-3] dimer in HBS-EP running buffer (10 mM HEPES pH7.5, 150 mM sodium chloride, 3.4 mM EDTA, 0.005% Surfactant P20) was run at 5 μL/min. Kinetics analysis of binding response was performed at various concentrations by subtracting the response measured in a control flow cell from the response measured in a sample flow cell. BIAevaluation version 4.1.1 (GE Healthcare) was used in the analysis.

Kd: 142 nM
B1: HLA-G2 (HLA-G [α1-3] dimer; complex of the α1 and α3 domains of the HLA-G molecule) (ligand)
chain: GSHSMRYFSAAVSRPGRGEPRFIAMGYVDDTQFVRFDSDSACPRMEPRAPWVEQEGPEYWEEETRNTKAHAQTDRMNLQTLRGYYNQSEANPPKTHVTHHPVFDYEATLRCWALGFYPAEIILTWQRDGEDQTQDVELVETRPAGDGTFQKWAAVVVPSGEEQRYTCHVQHEGLPEPLMLRW
notes: It was run in SPR as 'HLA-G [α1-3] dimer'; also called α1-3 complex
